The results in this text go back to patent US20020086390A1.

This assay has as its target PAK I of frog (Lepidobatrachus laevis) oocytes, zygotes and embryos (frog (Lepidobatrachus laevis)). Briefly: cell-based or functional assay.

“GST-Cdc42Hs preloaded with GTPγS (from UniProt P60953 1-191)” showed a degree of activation of inactive PAK I in DEAE-cellulose fractions (H4 phosphorylation) of 6 to 7 fold.
